Reference: US20240279281A1, “Peptide Inhibitors of Interleukin-23 Receptor” (Janssen Pharmaceutica NV, priority 2023, published 2024)
Starred links: 1 amine or outer side, 2 acyl side, 3 side chain; linkers in the order of their positions; H or OH if unused. Positions of bridges follow the written chain, without caps; N, C: chain ends. Non-standard residues stand in square brackets, D forms with d. Residues, ends and D or L forms follow the SMILES beside them. No end group written: not given here. *: point of attachment. X4 = O=C([C@H](Cc1ccc2cc(-c3ccc(N4CCOCC4)cc3)ccc2c1)N[*:1])[*:2]; NH(CH2CH2O)2CH2CH2NMe3+ = C[N+](C)(C)CCOCCOCCN*; 2Nal(6-OH) = N[C@@H](Cc1ccc2cc(O)ccc2c1)C(=O)O; Trp(7-Me) = Cc1cccc2c(C[C@H](N)C(=O)O)c[nH]c12; X9 = CN(CC*)C(=O)CCOCCOCC[N+](C)(C)C; AEF = NCCOc1ccc(C[C@H](N)C(=O)O)cc1; 3Pal = N[C@@H](Cc1cccnc1)C(=O)O; Lys(Me) = CNCCCC[C@H](N)C(=O)O; Pen = CC(C)(S)[C@H](N)C(=O)O; Thp = NC1(C(=O)O)CCOCC1; Sar = CNCC(=O)O

T1: interleukin-23 receptor (IL-23R), Q5VWK5
T1 chain: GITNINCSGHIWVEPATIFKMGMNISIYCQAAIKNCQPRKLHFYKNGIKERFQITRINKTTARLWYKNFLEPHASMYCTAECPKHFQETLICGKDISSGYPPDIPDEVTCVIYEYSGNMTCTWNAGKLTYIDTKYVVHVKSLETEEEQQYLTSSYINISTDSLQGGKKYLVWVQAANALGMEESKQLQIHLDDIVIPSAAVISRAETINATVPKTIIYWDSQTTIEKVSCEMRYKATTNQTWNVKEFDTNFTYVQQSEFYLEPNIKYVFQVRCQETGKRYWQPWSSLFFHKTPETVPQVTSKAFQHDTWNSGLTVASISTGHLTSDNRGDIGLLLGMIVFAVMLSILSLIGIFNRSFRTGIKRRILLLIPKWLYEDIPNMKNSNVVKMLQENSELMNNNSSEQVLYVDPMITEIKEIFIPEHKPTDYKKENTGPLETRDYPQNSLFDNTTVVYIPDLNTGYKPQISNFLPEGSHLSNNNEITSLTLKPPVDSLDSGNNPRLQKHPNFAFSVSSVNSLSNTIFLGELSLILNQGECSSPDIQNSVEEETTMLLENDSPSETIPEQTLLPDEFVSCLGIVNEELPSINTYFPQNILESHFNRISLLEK

T2: IL-23-stimulated phosphorylated STAT3 in peripheral blood mononuclear cells (PBMCs) (Homo sapiens, UniProt Q5VWK5)
T2 sequence (Q5VWK5 24-629): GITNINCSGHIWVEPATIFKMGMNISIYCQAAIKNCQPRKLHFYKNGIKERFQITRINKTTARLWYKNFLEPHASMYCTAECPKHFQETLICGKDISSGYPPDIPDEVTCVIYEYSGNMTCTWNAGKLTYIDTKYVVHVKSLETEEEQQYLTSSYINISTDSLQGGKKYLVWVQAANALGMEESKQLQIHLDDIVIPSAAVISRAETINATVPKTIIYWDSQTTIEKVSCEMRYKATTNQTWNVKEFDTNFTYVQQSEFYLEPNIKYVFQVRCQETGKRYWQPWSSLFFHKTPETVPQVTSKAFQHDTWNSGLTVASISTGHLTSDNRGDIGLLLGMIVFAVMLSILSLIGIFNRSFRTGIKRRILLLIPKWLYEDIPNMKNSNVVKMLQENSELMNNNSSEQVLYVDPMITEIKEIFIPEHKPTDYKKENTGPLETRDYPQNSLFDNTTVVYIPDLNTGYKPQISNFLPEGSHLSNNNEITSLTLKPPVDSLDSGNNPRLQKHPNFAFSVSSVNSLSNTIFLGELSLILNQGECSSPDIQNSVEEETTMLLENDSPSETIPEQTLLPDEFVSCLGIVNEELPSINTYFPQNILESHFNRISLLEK

T3: IL-23R (Homo sapiens, UniProt Q5VWK5)
T3 construct: host or cells: HEK293
T3 sequence (Q5VWK5 24-629): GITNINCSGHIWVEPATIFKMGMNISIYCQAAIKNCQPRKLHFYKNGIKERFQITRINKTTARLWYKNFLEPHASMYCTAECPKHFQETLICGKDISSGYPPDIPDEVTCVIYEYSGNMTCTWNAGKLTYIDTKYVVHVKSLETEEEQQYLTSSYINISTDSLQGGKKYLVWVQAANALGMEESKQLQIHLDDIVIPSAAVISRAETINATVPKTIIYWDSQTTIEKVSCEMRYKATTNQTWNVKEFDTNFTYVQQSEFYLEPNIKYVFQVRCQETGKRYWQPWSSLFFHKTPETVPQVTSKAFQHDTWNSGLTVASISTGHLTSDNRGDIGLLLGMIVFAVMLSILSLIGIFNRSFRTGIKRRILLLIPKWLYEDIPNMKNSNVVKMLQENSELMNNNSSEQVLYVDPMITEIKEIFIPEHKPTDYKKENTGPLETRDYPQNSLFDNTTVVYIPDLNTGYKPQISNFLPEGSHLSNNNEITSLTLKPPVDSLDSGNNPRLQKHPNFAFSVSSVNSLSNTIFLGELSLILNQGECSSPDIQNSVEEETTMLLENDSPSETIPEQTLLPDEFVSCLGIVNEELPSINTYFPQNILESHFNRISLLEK


Target: T1, interleukin-23 receptor (IL-23R), Q5VWK5
Assay: cell-based or functional assay
Conditions: not given

Row | Molecule | PBMC pSTAT3 IC50 [nM] | IL23R Reporter Assay IC50 [nM]
1 | K[Pen]NT[Trp(7-Me)]K(Ac)[Pen][2‑amino‑3‑(4-(2-aminoethoxy)phenyl)propanoic acid][2‑amino‑3‑(6-hydroxynaphthalen-2-yl)propanoic acid][Thp]K(Ac)N[3Pal][Sar] (not fully specified (residue 1, bridges); ends and bridges not checked; also: Lys1 lipidated (lipid not given here)) [SEQ ID NO: 427] | < 1 | 
2 | K[Pen]NT[Trp(7-Me)]K(Ac)[Pen][2‑amino‑3‑(4-(2-aminoethoxy)phenyl)propanoic acid][2‑amino‑3‑(6-hydroxynaphthalen-2-yl)propanoic acid][Thp]K(Ac)N[3Pal][Sar] (not fully specified (bridges); ends and bridges not checked; also: K1: lipidated lysine, lipid not given here) [SEQ ID NO: 85] |  | < 10
3 | R[Pen]NT[Trp(7-Me)]K(Ac)[Pen][2‑amino‑3‑(4-(2-aminoethoxy)phenyl)propanoic acid][3‑(6-(1H-pyrazol-4-yl)naphthalen-2-yl)‑2‑aminopropanoic acid][Thp]EN[Thp] (not fully specified (bridges); ends and bridges not checked) [SEQ ID NO: 433] | > 1 | 

Continued, values first:

Row | PBMC pSTAT3 IC50 [nM] | IL23R Reporter Assay IC50 [nM] | Molecule
4 | > 1 |  | R[Pen]NT[Trp(7-Me)]K(Ac)[Pen][2‑amino‑3‑(4-(2-aminoethoxy)phenyl)propanoic acid][2‑amino‑3‑(6-(4-methoxyphenyl)naphthalen-2-yl)propanoic acid][Thp]EN[Thp] (disulfide 2-7 (inferred); ends not checked) [SEQ ID NO: 438]
5 | < 1 |  | R[Pen]NT[Trp(7-Me)]K(Ac)[Pen][N,N,N‑trimethylethanaminium][2‑amino‑3‑(6-hydroxynaphthalen-2-yl)propanoic acid][Thp]EN[3Pal][Sar] (disulfide 2-7 (inferred); not fully specified; ends not checked) [SEQ ID NO: 436]

target: T2, IL-23-stimulated phosphorylated STAT3 in peripheral blood mononuclear cells (PBMCs); assay: PBMC pSTAT3 Assay; type: cell-based; conditions: PBMCs from healthy donors, IL-23 5 ng/mL, 30 minutes, read-out: PBMC pSTAT3 IC50
Procedure: Cryopreserved peripheral blood mononuclear cells (PBMCs) from healthy donors were thawed and washed twice in ImmunoCult-XF T cell expansion medium (XF-TCEM) supplemented with CTL anti-aggregate wash. The cells were counted, resuspended at 2-6×10^5 cells per mL XF-TCEM supplemented with penicillin/streptomycin and 100 ng/mL IL-1β (BioLegend, 579404), and cultured in tissue culture flasks coated with anti-CD3 (eBioscience, 16-0037-85 or BD Pharmingen, 555329) at 37° C. in 5% CO2. On day 4 of culture, PBMCs were collected, washed twice in RPMI-1640 supplemented with 0.1% BSA (RPMI-BSA), and incubated in RPMI-BSA in upright tissue culture flasks for ˜4 hours at 37° C. in 5% CO2. Following this ‘starvation,’ a total of 6×10^4 cells in 30 μL RPMI-BSA was transferred into each well of a 384-well plate pre-spotted with peptide or DMSO. The cells were incubated for 30 minutes prior to the addition of IL-23 at a final concentration of 5 ng/mL. The cells were stimulated with cytokine for 30 minutes at 37° C. in 5% CO2, transferred onto ice for 10 minutes, and lysed. Cell lysates were stored at −80° C. until phosphorylated STAT3 was measured using the phospho-STAT panel kit (Meso Scale Discovery, K15202D).

Row | IC50 [nM] | Molecule
6 | 0.01 to 0.1 | CC(=O)N[C@@H]1C(=O)N[C@@H](CC(=O)N(C)C)C(=O)N[C@@H]([C@@H](C)O)C(=O)N[C@@H](Cc2c[nH]c3c(C)cccc23)C(=O)N[C@@H](CCCCN(C)C(C)=O)C(=O)N[C@H](C(=O)N[C@@H](Cc2ccc(OCCN(C)C(=O)CCOCCOCC[N+](C)(C)C)cc2)C(=O)N[C@@H](Cc2ccc3cc(O)ccc3c2)C(=O)NC2(C(=O)N[C@@H](CCCCN(C)C(C)=O)C(=O)N[C@@H](CC(N)=O)C(=O)N[C@@H](Cc3cccnc3)C(=O)N(C)CC(=O)NCCOCCOCC[N+](C)(C)C)CCOCC2)C(C)(C)SSC1(C)C [compound 315, MeCO-Pen(3)-N(NMe2)-T-7MeW-K(NMeAc)-Pen(3)-AEF(NMePEG3a)-6OH2Nal-THP-K(NMeAc)-N-3Pya-Sar-CONH(PEG3a)] (Ac-[Pen]D(NMe2)T[Trp(7-Me)][Lys(Me)](Ac)[Pen]Y(X9)[2Nal(6-OH)][Thp][Lys(Me)](Ac)N[3Pal][Sar]-{NH(CH2CH2O)2CH2CH2NMe3+}; disulfide 1-6)

target: T3, IL-23R; assay: IL23R Reporter Assay; type: cell-based; conditions: HEK293 cells containing IL-23R, IL-12Rβ1 and STAT-inducible luciferase reporter; 10 ng/mL IL-23; 5 h; read-out: IC50
Procedure: Compounds were serially diluted in 100% (v/v) DMSO) and plated using an Echo acoustic dispenser (Labcyte) into 1536-well non-treated black assay plates (Corning #9146). […] After 5 h at 37° C., 5% CO2, 95% relative humidity, cells were placed at 20° C. and treated with BioGlo reagent (Promega) according to the Manufacturer's instructions. Luminescence was measured on a Pherastar FSX (BMG LabTech).

Row | IC50 [nM] | Molecule
7 | < 10 | CC(=O)N[C@@H]1C(=O)N[C@@H](CC(=O)N(C)C)C(=O)N[C@@H]([C@@H](C)O)C(=O)N[C@@H](Cc2c[nH]c3c(C)cccc23)C(=O)N[C@@H](CCCCN(C)C(C)=O)C(=O)N[C@H](C(=O)N[C@@H](Cc2ccc(OCCN(C)C(=O)CCOCCOCC[N+](C)(C)C)cc2)C(=O)N[C@@H](Cc2ccc3cc(O)ccc3c2)C(=O)NC2(C(=O)N[C@@H](CCCCN(C)C(C)=O)C(=O)N[C@@H](CC(N)=O)C(=O)N[C@@H](Cc3cccnc3)C(=O)N(C)CC(=O)NCCOCCOCC[N+](C)(C)C)CCOCC2)C(C)(C)SSC1(C)C [compound 315, MeCO-Pen(3)-N(NMe2)-T-7MeW-K(NMeAc)-Pen(3)-AEF(NMePEG3a)-6OH2Nal-THP-K(NMeAc)-N-3Pya-Sar-CONH(PEG3a)] (Ac-[Pen]D(NMe2)T[Trp(7-Me)][Lys(Me)](Ac)[Pen]Y(X9)[2Nal(6-OH)][Thp][Lys(Me)](Ac)N[3Pal][Sar]-{NH(CH2CH2O)2CH2CH2NMe3+}; disulfide 1-6)
8 | > 100 | CC(=O)NCCCC[C@@H]1NC(=O)[C@H](Cc2c[nH]c3c(C)cccc23)NC(=O)[C@H]([C@@H](C)O)NC(=O)[C@H](CC(N)=O)NC(=O)[C@@H](NC(=O)[C@@H](CCCNC(=N)N)NC(C)=O)C(C)(C)SSC(C)(C)[C@@H](C(=O)N[C@@H](Cc2ccc(OCCN)cc2)C(=O)N[C@@H](Cc2ccc3cc(-c4ccc(N5CCOCC5)cc4)ccc3c2)C(=O)NC2(C(=O)N[C@@H](CCC(=O)O)C(=O)N[C@@H](CC(N)=O)C(=O)NC3(C(N)=O)CCOCC3)CCOCC2)NC1=O [SEQ ID NO: 432, MeCO-r-Pen(3)-N-T-7MeW-K(Ac)-Pen(3)-AEF-2Nal6(Ph4(NMorph))-THP-E-N-THP-CONH2] (Ac-[dR][Pen]NT[Trp(7-Me)]K(Ac)[Pen][AEF][X4][Thp]EN[Thp]-NH2; disulfide 2-7)
